Article PMC3574117

Tests used:
[1] = molecular target: PhaF phasin from Pseudomonas putida KT2440 (Pseudomonas putida KT2440); assay: AUC; sedimentation equilibrium, short columns, 10000 and 16000 rpm, 20 mM sodium phosphate pH 7.0, 150 mM NaCl, 20 °C; single-species fit
[2] = molecular target: PhaF phasin from Pseudomonas putida KT2440 (Pseudomonas putida KT2440); assay: AUC; sedimentation velocity; 38 µM PhaF (3.8 to 38 µM, data not shown) in 20 mM sodium phosphate pH 7.0, 150 mM NaCl, 48000 rpm, 20 °C; c(s) analysis

stoichiometry N [1]: 4
stoichiometry N [2]: 4
Substance: PhaF phasin from Pseudomonas putida KT2440 (natural protein)
